In patent publication US20250361312A1:

Target: mouse OX40 receptor, cell-expressed (DO11.10-mOX40) (mouse) (UniProt P47741)
Assay: cell-based or functional assay

mouse OX40 receptor, cell-expressed (DO11.10-mOX40) (mouse), sequence (P47741 20-272): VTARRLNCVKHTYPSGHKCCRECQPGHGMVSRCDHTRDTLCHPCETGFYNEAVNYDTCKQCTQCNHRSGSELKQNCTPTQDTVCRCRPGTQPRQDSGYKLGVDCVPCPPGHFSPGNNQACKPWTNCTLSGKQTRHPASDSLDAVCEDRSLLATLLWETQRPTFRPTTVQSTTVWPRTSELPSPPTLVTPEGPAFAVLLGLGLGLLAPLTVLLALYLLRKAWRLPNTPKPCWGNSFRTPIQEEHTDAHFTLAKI

B1: FS20m-232-91AA/E2A (bispecific antibody, part only; not given: E2A Fab and upper Fc, human IgG1, part only)
heavy, part: GQPREPQVYTLPPSRDELFDPMYYYNQVSLTCLVKGFYPSDIAVEWESNGEPLWDYKTTPPVLDSDGSFFLYSKLTVWRDRWEDGNVFSCSVMHEALHNHYTQKSLSLSPGK
Work on B1 yielded an EC50 of IL-2 release, HPAC cells present, + a-hFc of 0.289 nM, a Max response, HPAC cells present, + a-hFc of 18800 mIL-2 pg/ml and a Max response, crosslinked by EphA2 on HPAC cells, no crosslinking agent of 11000 mIL-2 pg/ml.

B2: FS20m-232-91AA/R84 (bispecific antibody, part only; not given: R84 Fab and upper Fc, human IgG1, part only)
heavy, part: B1 heavy, part
B2 gave an EC50 of IL-2 release, Xlink (VEGF) of 0.144 nM, an EC50 of IL-2 release, no added crosslinker of 29.9 nM and a Max response, Xlink (VEGF) of 15100 mIL-2 pg/ml. For the same binder, the Max response, no added crosslinker was 16700 mIL-2 pg/ml.

B3: FS20m-232-91AA/C9B7W (bispecific antibody, part only; not given: C9B7W Fab and upper Fc, human IgG1, part only)
heavy, part: B1 heavy, part
B3 was tested, and the EC50 of IL-2 release, no added crosslinker (LAG3 co-expressed on T cells) was 0.175 nM and the Max response, no added crosslinker (LAG3 co-expressed on T cells) was 9670 mIL-2 pg/ml.

B4: G1/OX86 (antibody, from another filing, human IgG1, V domains shown)
VH: QVQLKESGPGLVQPSQTLSLTCTVSGFSLTGYNLHWVRQPPGKGLEWMGRMRYDGDIYYNSVLKSRLSISRDTSKNQVFLKMNSLQTDDTAIYYCTRDGRGDSFDYWGQGVMVTVSS
VL: DIVMTQGALPNPVPSGESASITCRSSQSLVYKDGQTYLNWFLQRPGQSPQLLTYWMSTRASGVSDRFSGSGSGTYFTLKISRVRAEDAGVYYCQQVREYPFTFGSGTKLEIKR
Work on B4 yielded an EC50 of IL-2 release, HPAC cells present, + a-hFc of 0.811 nM, an EC50 of IL-2 release, Xlink (anti-hFc) of 15.6 nM and a Max response, HPAC cells present, + a-hFc of 17900 mIL-2 pg/ml. For the same binder, the Max response, Xlink (anti-hFc) was 16200 mIL-2 pg/ml.
